Source: PMC2425480 (Nucleic Acids Research, 2008)

Molecular target: the molecule itself
Experiment: crystal structure

B1: Sulfolobus solfataricus MCM protein N-terminal domain (residues 1–268) (domain or fragment, UniProt Q9UXG1 1-268, looked up)
chain: MEIPSKQIDYRDVFIEFLTTFKGNNNQNKYIERINELVAYRKKSLIIEFSDVLSFNENLAYEIINNTKIILPILEGALYDHILQLDPTYQRDIEKVHVRIVGIPRVIELRKIRSTDIGKLITIDGILVKVTPVKERIYKATYKHIHPDCMQEFEWPEDEEMPEVLEMPTICPKCGKPGQFRLIPEKTKLIDWQKAVIQERPEEVPSGQLPRQLEIILEDDLVDSARPGDRVKVTGILDIKQDSPVKRGSRAVFDIYMKVSSIEVSQKV
- stoichiometry N: 6
